Paper PMC4098657 (Molecular microbiology, 2009)

B1: AglZ^Rec (domain or fragment, M. xanthus, UniProt Q1D823 2-240, looked up)
chain: ERRVLIVESEHDFALSMATVLKGAGYQTALAETAADAQRELEKRRPDLVVLRAELKDQSGFVLCGNIKKGKWGQNLKVLLLSSESGVDGLAQHRQTPQAADGYLAIPFEMGELAALSHGIVPPGTDDTGASLDAALNGTREAPPPMPPSLKAAAGGPPKLPKRERRSAMTEEDRAFLDRTFQSIADRKAELLAESRQLKRPPPRRELMGTPEGKIQILRDELKTREAQLARLSEIWNVR
B2: FrzCD^N-ter (domain or fragment, M. xanthus, UniProt P43500 2-135, looked up)
chain: SLDTPNEKPAGKARARKAPASKAGATNAASTSSSTKAITDTLLTVLSGNLQARVPKELVGESGVELAHLLNQVLDQFAASEHRKHVAAQEIDQALDALIGLVREGDLSRWNTTTEDPQLGPLLEGFGKVIETLR
B3: FrzCD^C-ter (domain or fragment, M. xanthus, UniProt P43500 132-417, looked up)
chain: ETLRTFVREINEAALRLSSSANQVLAASTQHETSSTEQAAAIHETTATMEELKHASAQIAENAGSVARVAEETLGAARAGRGAIGEFIQAMQQIRSDGVAVADSIAKLSKRVERIGTVVEVIDEIADRSDLLALNAALEGSRAGEAGKGFSIVAAEMRRLAENVLDSTKEIKNLITEIREATAAAAGAAEASKSATESGEKLGAVAAQAVEGILAGVQETSDAARVINLATQQQRTATEQVVASMAEIEDVTRQTTQASKQATGAAAELTQLAGRLAELIKRFKAD

Experiments:
Test in all cases: cross-linking
[1] = biological target: T1, His-tagged FrzCD full-length protein (M. xanthus, UniProt P43500 1-417)
T1 sequence (looked up): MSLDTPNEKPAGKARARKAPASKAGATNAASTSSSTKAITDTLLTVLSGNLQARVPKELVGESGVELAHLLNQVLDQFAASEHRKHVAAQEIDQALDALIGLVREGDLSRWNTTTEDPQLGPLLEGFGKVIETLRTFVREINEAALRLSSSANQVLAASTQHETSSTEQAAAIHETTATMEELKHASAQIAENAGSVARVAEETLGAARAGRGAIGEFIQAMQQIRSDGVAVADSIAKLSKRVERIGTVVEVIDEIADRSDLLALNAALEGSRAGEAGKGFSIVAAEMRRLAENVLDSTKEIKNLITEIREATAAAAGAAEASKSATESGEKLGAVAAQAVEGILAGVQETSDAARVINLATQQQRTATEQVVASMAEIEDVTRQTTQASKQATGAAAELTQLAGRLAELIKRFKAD

AglZ^Rec = biological target: B1
cross-linking = biological target: the molecule itself

Row | Binder | binding result [1] | binding result (AglZ^Rec) | binding result (cross-linking)
1 | B1 | binds | – | –
2 | B2 | – | binds | binds
3 | B3 | – | – | binds
